4 molecules from patent US20170168078A1 (EISAI R AND D MANAGEMENT, published 2017) can be followed below.

The term Kd denotes a measure of binding affinity in units of concentration. A word on the koff: it is the rate constant with which the complex falls apart. What is called kon is the rate constant with which the complex forms.

The target of assay [1] is T1, human FRα expressed on CHO cells (GPI-linked) (human, UniProt P15328 25-234).
T1 construct: CHO/CHOK1 cells stably expressing GPI-linked human FRα; They were used intact in flow cytometry and as nonreduced whole cell lysates in the western blots; also called native FRα; CHO-FRα
Nature of the assay: flow cytometry on CHO cells expressing FRα, antibody 1 µg/mL, FITC secondary. Here is the method:
Flow cytometry studies were conducted to assess the ability of selected FRα-specific antibodies to bind to the native protein. For these studies Chinese hamster ovary (CHO) cells expressing FRα, were harvested, washed, and re-suspended in ice-cold growth media (RPMI supplemented with 10% FBS). Cells were incubated for 1 hour on ice with 9F3, 19D4, 24F12, or 26B3 (1 μg/mL), washed and then incubated with FITC-conjugated secondary antibodies [dilution 1:100] (Southern Biotech, Birmingham, Ala.). Prior to analysis, cells were labeled with 7-amino-actinomycin D (7-AAD) (BD Biosciences, Franklin Lakes, N.J.) for the exclusion of nonviable cells. CHO cells not expressing FRα were also subjected to the same experimental procedures, as a negative control. Cells were analyzed on an […]™ Flow Cytometer (GUAVA® Technologies, Hayward, Calif.). The data provided in Table 4 indicate that all four antibodies are capable of binding native FRα.
For orientation: A flow cytometer gives signals particle by particle.

Assay [2] deals with T2, human folate receptor beta (FRβ) expressed on CHO cells (human, UniProt P14207 17-230).
T2 construct: whole, on cells; also called CHO-FRβ
Nature of the assay: western blot of nonreduced whole cell lysates of CHO cells, SDS-PAGE. (In general: A western blot detects proteins with antibodies after separation by electrophoresis.)

The target of assay [3] is T3, purified recombinant human FRβ.
T3 construct: also called human folate receptor beta (purified, secreted form)
Nature of the assay: western blot of 0.5 µg purified protein per lane, reduced and nonreduced, SDS-PAGE. Here is the method:
(§1) Experiments were conducted to determine whether any of the FRα-specific antibodies, described above, could recognize denatured forms of FRα. […] Lysates were pre-cleared by centrifugation at 13,000 rpm for 15 minutes to remove debris. For reduced and denatured samples, equal amounts of protein (20 μg) were boiled for 10 minutes in NUPAGE® LDS sample buffer (Invitrogen) containing 5% β-mercaptoethanol+40 mM DTT. […] The membrane was blocked in PBST+ 5% non-fat milk for lh at room temperature after which time, the membrane was washed twice with PBST. Immunoblotting was conducted using purified mouse monoclonal antibodies 9F3, 19D4, 24F12, or 26B3 (1 μg/mL) specific for FRα, which were detected with a goat-anti-mouse HRP-conjugated antibody and visualized using SUPERSIGNAL™ West Pico chemiluminescent substrate (Pierce, Rockford, Ill.). Luminescence was visualized using the Omega 12iC molecular imaging system (Ultra-Lum, Claremont, Calif.) with image analysis performed using ULTRAQUANT™ 6.0 software (Ultra-Lum).
(§2) Western blot analyses were also performed using purified folate receptor preparations. For these experiments, 0.5 μg of purified human FRα, β, Γ or Δ, produced as described in Example 1, were incubated in 1× SDS-PAGE sample loading buffer (Invitrogen) with or without 20 mM DTT, boiled for 10 min, and electrophoresed on 4-12% gradient SDS-PAGE gels. Protein was transferred to PVDF membrane and blots probed as described above. Gels were run using Benchmark™ prestained protein ladder (NOVEX®). Gels using purified recombinant FR proteins were also visualized via silverstaining to ensure equal amounts of protein were loaded.

The target of assay [4] is T4, purified recombinant human folate receptor alpha (rh-FRα) (human, UniProt P15328 25-234).
T4 construct: One is secreted from CHO cells, with a human Ig kappa leader and a C-terminal 6x His tag replacing the GPI attachment site; The other is from Sf9 cells, with an N-terminal 6x His tag and the GPI site intact; also called FR-alpha; FOLR1
Nature of the assay: SPR, BIACORE T100, antibody captured on anti-mouse IgG, rh-FRα 1-30 nM as analyte, single-cycle kinetics, 1:1 fit. How it is done:
Binding characteristics of the purified monoclonal antibodies to FRα were determined by surface plasmon resonance (SPR) experiments. All of the SPR experiments were performed at 25° C. using a BIACORE™ T100 with research grade CM5 chips (GE Healthcare), as specified by the manufacturer. Initially, anti-mouse IgG provided in the mouse antibody capture kit (GE Healthcare) was immobilized by amide coupling to CM5 sensor chips. Mouse anti-FRα monoclonal antibodies (26B3, 24F12, 19D4, or 9F3) were captured on individual flow cells per binding cycle, while the fourth flow cell was used as a reference. Binding experiments were performed with HBS-P (GE Healthcare) as running buffer and at a flow rate of 30 μL/min. Each monoclonal antibody sample (0.5 μg/mL) was injected for 3 minutes to capture the antibody. Various concentrations of purified recombinant human FRα (rh-FRα) (1 nM-30 nM) were then injected over the FRα-specific and reference surfaces for 3 minutes to record binding sensograms using a single-cycle kinetics method. The dissociation profile was monitored for 25 minutes. In between bindings, the surface was regenerated with a 30 μl injection of 10 mM glycine (pH 1.7). The sensograms were processed and fitted to a 1:1 Langmuir binding model using BIACORE™ T100 evaluation software (version 2.0.1).
(SPR reads the build-up and loss of mass on a sensor chip optically.)

Assay [5] concerns the target T5, purified recombinant human FRΓ.
T5 construct: also called human folate receptor gamma (purified)
Nature of the assay: western blot of 0.5 µg purified protein per lane, reduced and nonreduced, SDS-PAGE. How it is done: as §1, §2

T2 sequence (P14207 17-230): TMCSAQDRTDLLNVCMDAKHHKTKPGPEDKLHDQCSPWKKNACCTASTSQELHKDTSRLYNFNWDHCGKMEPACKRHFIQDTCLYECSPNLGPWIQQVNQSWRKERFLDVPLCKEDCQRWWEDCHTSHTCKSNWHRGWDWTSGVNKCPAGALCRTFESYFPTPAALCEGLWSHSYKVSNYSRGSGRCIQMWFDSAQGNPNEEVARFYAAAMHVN
T4 sequence (P15328 25-234 limits assumed): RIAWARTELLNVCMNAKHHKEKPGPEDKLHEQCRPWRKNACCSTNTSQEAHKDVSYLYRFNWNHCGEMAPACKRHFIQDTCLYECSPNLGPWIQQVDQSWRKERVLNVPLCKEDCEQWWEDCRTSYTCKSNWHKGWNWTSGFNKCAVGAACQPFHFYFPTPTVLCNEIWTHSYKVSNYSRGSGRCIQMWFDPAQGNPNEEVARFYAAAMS
T1 sequence (P15328 25-234 limits assumed): as above
T3 sequence (chain, as listed by the source limits assumed): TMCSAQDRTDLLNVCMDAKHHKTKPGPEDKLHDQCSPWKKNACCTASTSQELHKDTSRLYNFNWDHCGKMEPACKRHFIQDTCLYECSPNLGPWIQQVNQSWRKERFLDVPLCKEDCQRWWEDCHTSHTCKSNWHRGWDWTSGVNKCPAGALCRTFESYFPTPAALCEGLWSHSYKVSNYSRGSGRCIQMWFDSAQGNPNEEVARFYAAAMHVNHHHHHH
T5 sequence (chain, as listed by the source limits assumed): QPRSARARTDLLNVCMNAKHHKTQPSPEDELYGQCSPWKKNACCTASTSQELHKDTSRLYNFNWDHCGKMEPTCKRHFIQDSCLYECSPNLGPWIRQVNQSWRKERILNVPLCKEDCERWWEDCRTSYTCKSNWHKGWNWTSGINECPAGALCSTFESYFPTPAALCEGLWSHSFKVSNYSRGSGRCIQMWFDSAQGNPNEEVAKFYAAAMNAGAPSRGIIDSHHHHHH

B1: Monoclonal antibody 9F3.H9.H3.H3.B5.G2 (antibody, mouse IgG2a, V domains shown)
VH: ESGPGLVRPSQSLSLTCSVTGYSITSGYYWNWIRQFPGSRLEWMGYIKSDGSNNYNPSLKNRISITRDTSKNQFFLKLNSVTTEDTATYFCTREWKAMDYWGQGTSVTVSS
VL: PAIMSASPGEKVTMTCRASSTVSYSYLHWYQQKSGASPQLWIYGTSNLASGVPARFSGSGSGTSYSLTISSVEAEDAATYYCQQYSGYPLTFGAGTKLELKR
notes: also called ATCC PTA-11887
On to B1, for which the “Geometric Mean” value in assay [1] came to 760. In addition, in assay [2], the binding result is “no binding (tested: 1 µg/mL)”. In addition, the binding result in assay [3] is reported as “no binding (tested: 1 µg/mL)”. In addition, in assay [4], the Kd amounted to 0.715 nM, the koff came to 0.00031 s⁻¹ and the kon was found to be 434000 M⁻¹ s⁻¹.

B2: Monoclonal antibody 26B3.F2 (antibody, mouse IgG1, V domains shown)
VH: GPELVKPGASVKISCKASDYSFTGYFMNWVMQSHGKSLEWIGRIFPYNGDTFYNQKFKGRATLTVDKSSSTAHMELRSLASEDSAVYFCARGTHYFDYWGQGTTLTVSS
VL: PASLSASVGETVTITCRTSENIFSYLAWYQQKQGISPQLLVYNAKTLAEGVPSRFSGSGSGTQFSLKINSLQPEDFGSYYCQHHYAFPWTFGGGSKLEIKR
notes: also called MAb 26B3; ATCC PTA-11885
For B2, the “Geometric Mean” value in assay [1] was 854. Also, the binding result in assay [2] is listed as “no binding (tested: 1 µg/mL)”. The binding result in assay [3] is recorded as “no binding (tested: 1 µg/mL)”. Moreover, the binding result in assay [5] was “no binding (tested: 1 µg/mL)”. For the same molecule, in assay [4], the Kd stood at 0.0273 nM, the koff was 1.43e-05 s⁻¹ and the on-rate constant (kon) was 524000 M⁻¹ s⁻¹.

B3: Monoclonal antibody 19D4.B7 (antibody, mouse IgG2a, V domains shown)
VH: GAELVKPGASVKLSCTASGFNIKHPYMHWVKQRPDQGLEWIGRIDPANGNTKYDPKFQGKATITADTSSNTAYLQLSSLTSEDTAVYYCGREEVADYTMDYWGQGTSVTVSS
VL: PASLAVSLGQRATISCRASESVDTYGNNFIHWYQQKPGQPPKLLIYLASNLESGVPARFSGSGSRTDFTLTIDPVEADDAATYYCQQNNGDPWTFGGGTKLEIKR
notes: It was labelled with Ru (about 13 labels per IgG) when used as the detector in the ECL assays; also called ATCC PTA-11884
Turning to B3, the “Geometric Mean” value in assay [1] worked out at 1130. Further, the binding result in assay [3] is on record as “no binding (tested: 1 µg/mL)”. Moreover, the binding result in assay [5] is given as “no binding (tested: 1 µg/mL)”. In assay [4], the Kd amounted to 0.567 nM, the koff was found to be 0.000242 s⁻¹ and the kon came to 427000 M⁻¹ s⁻¹.

B4: Monoclonal antibody 24F12.B1 (antibody, mouse IgG1, V domains shown)
VH: SGGGLVRPGGSLKLSCAASGFTFSSYAMSWVRQSPEKRLEWVAEIGSGGSYTYYPDTVTGRFTISRDNAKSTLYLEMSSLRSEDTAIYYCARETTAGYFDYWGQGTTLTVSS
VL: TSSLSASLGDRVTISCSASQGINNFLNWYQQKPDGTVKLLIYYTSSLHSGVPSRFSGSGSGTDYSLTISNLEPEDIAIYYCQHFSKLPWTFGGGTKLEIKR
notes: also called ATCC PTA-11886
Take B4: the “Geometric Mean” value in assay [1] is 777. Further, the binding result in assay [2] is recorded as “no binding (tested: 1 µg/mL)”. The binding result in assay [3] is recorded as “no binding (tested: 1 µg/mL)”. Further, the binding result in assay [5] is recorded as “no binding (tested: 1 µg/mL)”. Also, in assay [4], the Kd is 0.102 nM, the koff is 3.99e-05 s⁻¹ and the kon was 393000 M⁻¹ s⁻¹.
